According to the domain aggregation screens of Martell et al. (2025):

Test: soluble fraction after stress (log2 fold change); higher = more stays soluble; pooled small domains, quantitative proteomics
Details: stress: pH 4
How it was run: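 Custom libraries of small protein domains were pooled and exposed to pH 4. High-throughput quantitative proteomics then measured the log2 fold change in the amount of each domain still soluble, with higher values meaning more stayed soluble. This soluble-fraction fold change stands for aggregation propensity.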

Row | Sequence | soluble fraction (log2)
1 | HMGMSKQKQSSLVRIIMQEISDANEGRMKMSQIIDAALIKGISDSTVRSVISRLSTTGAIYEPQTGTYEW | -0.374
2 | HMDLRIKEIMSERNVTSAWLAEKVGISKVAVSNIVTGKSSPSLDNLLKIADALNVSITTLIG | 0.305
3 | HMREIKSNEILLEVENLKNSEFFNDINFNIKKGEIVGFSGLIGAGRTELALTLFGYYKAESGKVIQ | -0.291
4 | HMTVAEVEDRMEASRVRQALDAVGEPHRTTIALAYFTGLTHTEIAQRMGVPLGTVKSRIRDGMAKMRTHLG | -0.172
5 | HMNPEAFIQTLKQILSTYEKNDPIYLQEIKADLVKKFRIEIPINALETYLKENGYSNIYLKR | -0.516
6 | HMTIDETKKQQVKDGLKDIPGVTVEFVGDKAVLKGAVTDANRVKIMQIVMAAKVLSDASGLTSK | 0.237
7 | HMNEVIIKNWSNAVGRNIKIKTKRGRPIFGRLLAINDQQLTIASKYMRGNATITVAREDVVSMSVS | 0.22
8 | HMSKEGLASLLEDINGLGAIRRKTLIDHFGSVAKIRGARPEEIAALPGMGRKIAEHILASLRED | 0.418
9 | HMGPEQLIGKTGIAASELAPRGEVKIEGQIWRAETVGDHVKQGEPVEVVSREGLILRVKPKHPQTRG | -0.0209
10 | HMFDDEELDRFAGVPADAYLPADEDEFREVFYTMRPGEVVEWVRSLELRHIEIPNGIKDEIFMMIR | -3.37
11 | HMVDLDIENYELEDILNLFRLQYNFVEADLKRAYRMALKLHPDKSGLDGEYFRFYMKAYKIVENIFNFRNR | -1.38
12 | HMTVVPNIVNQPEAAGTNLLISSNLKPGNRAVQYSDTVKAGDIISQSPEPGAQATLGGKVDYVISQGPAPT | 0.22
13 | HMQVAPQVERLLRVMGNETLSLSDIMGRMGLSDKKNFRESYLVPALRSAVIEMTIPDKPNSSLQKYRRIHE | -0.125
14 | HMNKYQFESKIHIYRATKRMTQQELADLVGVSRQTIMQLERNRYNPSMMLAYGIAKVFDVTIEDLFDFSEV | 0.0457
15 | HMSPSRRENLTAAAKEYFVNTQIRHKTFGNGVIIKRSGNIAAIRFDNGTIKQIDLIAALQAKVLSIL | -0.512
16 | HMAFRWQQIADTITSMIANGSYPRGSRLPTEAALADSFGVNRHTVRRAVAALRDTGLVQPRQGAGVFVIG | -0.103
17 | HMAGPTIVTNSQGVPNYHLVKRGDTVSQIAQRYGLNYRQIGAINNLDSKYTIYSGQWLKLWQG | -0.00755
18 | HMSAAIGEAVIATDEINVRSGPGLSHEIVSVVSRNESYPILEERGDWVQIQLNGGQKGWVVSWLIKKKS | -0.268
19 | HMIIDPQIRTLWTSQIIDILKSNPKRSIRSILELYPSNKESWVLIILQELIGEEKIIRDLDYLYFNK | -1.26
20 | HMGGLAEIILNAIEIEGGFLPITDKSAPELIQSRLGMSKKAFKEAVGTLYKNRDIAIEPNGLRKI | -0.162
21 | HMTGQVASMVERLAQRLKDQPQDAEGWAMLARSYSVLGRHPEALQAYEKALALRKDDANLLADYADSLA | -0.729
22 | HMFNRAVSDNEALQVREHFDRDATVMSLAKKYGVSTVTIQRILLGKTYRNVGGPLFDKATLKKRMGN | 0.13
23 | HMAKIPASTVVEIDGAPVVVAVRVNARARSYRLSIPHSGGPLLTLPPHGKWAEAEAFLLRHHNWLAARLHR | 0.22
24 | HMDRYVDEEKRFYWRSGEAYLNFSKYKDRSLAEVATVDPGFLRWMMEADFSPETKQIVERALEGEFPQKK | -0.244
25 | HMQNYLLFEEAKNIVNTLNLTNEKDWSEFIKKDFTYKNQIPIFPNQYYKHKGWVDWNDWLGINK | -1.62
26 | HMTLAEEFNNLNGKVITRETLESLLVKAEKEQNSTISNRIRKVLQAYTADTFLIELQHTESA | -0.0269
27 | HMKTTSYAKLLRFLRTERDLSQITVAKQLGLSRASYLALEHGSRELSLSEAVKVTTLYGIRIDDLIVNH | -0.899
28 | HMNLFNEIEKQYQALQDRSSASLVDLRHLLLDIEELVNSPDYQALAPDQRSTLQAARKELMRRIQKQEN | -0.193

Row | Sequence | soluble fraction (log2)
29 | HMGETDDDFRELEEFVEKTKFDKLGTFMYSKEEGTPAARLPEQIHGNTKKSRYNKIMSIQQKVSNEN | -0.897
30 | HMPSTKDGIKEFLSSGAMKGIGRKTASAIVSRFGIDTLKIIEQEPQRLTEVSGIGKKTAQRIAEAFGKH | 0.201
31 | HMGVAAPMPGTITDVRVKVGDRVQPRTVVMMLEAMKMENEIFAGRAGVVSQVAVEKGASVNTGDLLISIDP | 0.325
32 | HMSENDTILAKFASIINNKSLELVIFPDTAYLKGQVSTPEDKARAETVAQSLLGSKPLISLIEFE | -0.167
33 | HMSTLGIRIKHYRTDSNLTQKELAGLINVKRDALANWETDRALPDVMNLKKLAEVFQVSTDELLQV | -0.225
34 | HMPNSIKAPAYLHNIARIYDHVLIDVEKASSAYEKLIKKYPNHPLSINAKLYLENAFNRSDEELLNMIKEN | -0.624
35 | HMLSLGQQIRNHVLSRIESGEWPEGSRIPSEAKLVELLGASRMTIHIALRDLSAEGVLLRKQGAGTFVAPR | -0.553
36 | HMESIGANIRRLRKERNMSQDELARKAFTNRSNINRYESGKMVPSADTTEKIEEALGVPAGTLAQ | -0.638
37 | HMDEYTREQFVADMEEGRVREVTIHPNSEVPTGYIRVELANGADMKLYVTDIVEAEELVRSYGFDPPVRDV | -0.56
38 | HMNREDYIKAIFKIAEREGEASNQRIADSLGVSRASASEMVKKLIQEGFVVAEGRQLSLSAEGERIA | -0.32
39 | HMAVVEVATTTATEYKVEKGHHFKVGDFVMFKTGAKSYAITAIDTTSPIFDKITVGTTLGEAIPVGGTLM | -1.45
40 | HMGNKDAQLVHLAKMNEIQIELMKTGRGYMVTDQNVYNLAKKMGENMGFKHPDLFLTDPAKV | -0.0687
41 | HMLSVNREQVEQSLKQEWGFDYDKNLRAAQRAIDVYGDDDLKLLLNGPTGNDPAIVKLFARLGGEVTEE | -0.813
42 | HMSKNTFIGNIDDKELYVGSGRYGPFMLYDGKFTNITRYLSDESKELTDITIDDYSKIVNNARPK | -1.5
43 | HMEDYTPLQELGLKARYIELLEKGGIFSVEDLVQKSVDDLKDIDGIGEKTAKEIWEIVDSMVDF | -0.308
44 | HMRLDPENFYIRAVTYYRNGDWQRALSQLDEAIKLGTAIEYPALQARIYLEQGMRDEFIAASEK | -1.42
45 | HMKEATTSPLDGIPGIGSKRKKALLSHFGSARSVARADIPDLMRVDGISRQVAETIYGWFHN | 0.311
46 | HMGGGVERLTPRQREVLGYMAEGRSNSWIAGAIGFSEKAVVQHTSKIYDALGLAVDADDHRRVLAVLRYLT | -1.07
47 | HMIDAHTALLAKRLEAKGMLPLTDKSSAEEIYAEFGISKKAFKKALGALYKERLVRIGEDGVVWI | 0.0608
48 | HMTTLLNHLKGTRLEAGLSQQALARLAGISRQAYSALESGSSNPSTEVALRLARALKTSVDHLFSLPE | 0.0864
49 | HMNEKLRNYIDTLFEHAPTTVRAVELKEEMFQNLTDKYNDLIAQGKSEEAAFNIAVASIGDVDSLIAGLS | -0.459
50 | HMITLYDLLGVSKTASSQEIKTAFKKKALQYHPDKNDGNPDKEEIFKRINMAYQVLGQPQSRANYDFSITP | 0.0886
51 | HMAPREELIAIHEALDKLEREDPQVSQLVKLRYFVGMTMAEAADAMDLKKRAAEALWTYGKAWLHREIKKN | -0.576
52 | HMAHILDLMELKQILRLHMDGLSNRRISDTLGIHRNTINSYVSQFKASKHGIEELLKLSDYELAQLFP | -1.39
53 | HMTILKEGMSGPEVERLQDALKRHGFDPGRVDGQFGPGTEAAILAFQKSEGLRADGVAGPKTQQALGLE | 0.155
54 | HMEQVSDPALLERYAKEVVAASPKAVADYQAGNAKAFQALVGQMMKRTKGKGDPALIREILQKL | 0.143
55 | HMIFNENLKSAREKKGLSQKEVAEAIGVAKSTYSLYESGNREPNVQTIKRIADVLNVSADVLLGL | 0.332
